Results published in patent US8883977B2, “MUC1 antibody” (Shionogi & Co., Ltd., priority 2010, dated 2014).

Molecular target: T1, Biotin-STn(DT*R)-20 (Homo sapiens, UniProt P15941)
T1 construct: Synthesis of MUC1 Tn20-Mer Glycopeptide; made in house; host or cells: chemical solid-phase synthesis
Test: Affinity of antibody, Biacore T100, Sensor Chip SA
Format: binding
Conditions: Biotin-STn(DT*R)-20 on Sensor Chip SA; read-out: dissociation constant KD
Method: Biotin-STn(DT*R)-20 was solid-phased on a Sensor Chip SA (manufactured by GE Healthcare), and a dissociation constant of 12D10 was analyzed using Biacore T100.

T1 sequence (P15941 136-155): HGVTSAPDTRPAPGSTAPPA

Kd: 9.1 nM
B1: 12D10: mouse monoclonal IgG2a anti-MUC1 antibody raised against STn(DT*R)-20-Cys-KLH; variable regions SEQ ID NOs 2 and 3 (protein)
chain 1: EVQLVESGGGLVQPGESLKLSCESNEYEFPSHDMSWVRKTPEKRLELVAAINSDGDNTYYPDTMERRFIISRDNSKKTLYLQMSSLNSADTALYYCARLTLRNWYFDVWGAGTTVTVSS
chain 2: DIVMSQSPSSLPVSVGEKVTMSCKSSQSLLYSTNQQNYLAWYQQKSGQSPKLLVYWASTRESGVPDRFTGSGSGTDFTLTISSLKAEDLAVYYCQQYYRYPPTFGAGTKLELNRA
